Experimental data from article doi:10.1101/737593 (bioRxiv, 2019).

B1: His6-MrpC lacking the 25 amino terminal residues (His6-MrpC_(ΔN25)) (domain or fragment, Myxococcus xanthus, UniProt Q9FDC4 26-248, looked up)
chain: MMVTANKLVPGQEAIDFKGYFKVESFPHNSTIYRPGDNTDRVYLLKSGRVRLMRIGKNSTRSVVSILRPGDLFGELFRPEGTPIEEMAIAAGEAEVWSIEGRDFRAQLEARPALAVDVVRAYAERVRALRKRVLGLTFKEVPARLADTLLTLVEAHGERCPHGGETDLRGITQQDLADLVGASRSFVSTLINEMKREGVLGNVGRILCVRDQKALRKIAGKEK
B2: hexa-histidine affinity tagged (His6)-MrpC (natural protein, Myxococcus xanthus, UniProt Q9FDC4 1-248, looked up)
chain: MHGFNRPLGPIGSNVVAPLQTTSSGMMVTANKLVPGQEAIDFKGYFKVESFPHNSTIYRPGDNTDRVYLLKSGRVRLMRIGKNSTRSVVSILRPGDLFGELFRPEGTPIEEMAIAAGEAEVWSIEGRDFRAQLEARPALAVDVVRAYAERVRALRKRVLGLTFKEVPARLADTLLTLVEAHGERCPHGGETDLRGITQQDLADLVGASRSFVSTLINEMKREGVLGNVGRILCVRDQKALRKIAGKEK
B3: His6-MrpC_(AAAA) (natural protein, Myxococcus xanthus, UniProt Q9FDC4 1-248, looked up)
chain: MHGFNRPLGPIGSNVVAPLQAAAAGMMVTANKLVPGQEAIDFKGYFKVESFPHNSTIYRPGDNTDRVYLLKSGRVRLMRIGKNSTRSVVSILRPGDLFGELFRPEGTPIEEMAIAAGEAEVWSIEGRDFRAQLEARPALAVDVVRAYAERVRALRKRVLGLTFKEVPARLADTLLTLVEAHGERCPHGGETDLRGITQQDLADLVGASRSFVSTLINEMKREGVLGNVGRILCVRDQKALRKIAGKEK

Target: the molecule itself
Experiment: SEC

Stoichiometry N, 2:
B1
B2
B3
